Measurements reported in US20220064325A1 (ALLIGATOR BIOSCIENCE, published 2022).
Blank lines part the entries; values can stand above or below the binder they belong to.

How the values were obtained:
[1] = molecular target: T1, human EpCAM expressed on cells (human, UniProt P16422 24-314); experiment: flow cytometry, titration of biotinylated antibody on EpCAM-transfected CHO cells, detection with fluorochrome-conjugated streptavidin
T1 construct: whole, on cells; In the debris and exosome assays EpCAM stands on heat-shocked tumour cell debris or on exosomes; also called EpCAM on CHO-EpCAM, JEG, JAR, HT29, BxPC3, MCF7 and MB49-hEpCAM-OVA cells, their debris or exosomes
T1 sequence (looked up): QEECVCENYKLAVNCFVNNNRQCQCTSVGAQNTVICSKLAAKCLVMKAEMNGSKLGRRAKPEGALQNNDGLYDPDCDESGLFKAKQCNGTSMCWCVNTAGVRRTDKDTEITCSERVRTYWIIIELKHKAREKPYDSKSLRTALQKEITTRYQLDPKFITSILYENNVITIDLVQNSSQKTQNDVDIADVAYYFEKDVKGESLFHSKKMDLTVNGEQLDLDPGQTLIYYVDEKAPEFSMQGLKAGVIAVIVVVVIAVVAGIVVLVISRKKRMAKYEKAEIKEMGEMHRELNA
Source text: FIG. 3. […] Binding of biotinylated antibodies was detected by flow cytometry using fluorochrome-conjugated streptavidin. Results are pooled from two replicates in one representative experiment of two.
The human EpCAM gene was cloned into pcDNA3.1, and the vector was subsequently stably transfected into CHO cells. Control CHO cells were stably transfected with and empty pcDNA3.1 vector. […] Binding of biotinylated antibodies was detected with fluorochrome-conjugated streptavidin and analysed using flow cytometry.

[2] = molecular target: T2, human CD40 expressed on cells (human, UniProt P25942 21-277); experiment: flow cytometry, titration of biotinylated antibody on human PBMC gated with CD19, CD14, CD3 and CD56, detection with fluorochrome-conjugated streptavidin
T2 construct: whole, on cells; also called CD40 on primary human B cells, monocytes, monocyte-derived DCs, Raji cells and hCD40tg mouse DCs
Source text: FIG. 5. […] Binding of biotinylated antibodies to different cell populations was detected by flow cytometry using fluorochrome-conjugated streptavidin. Results are pooled from three donors in one representative experiment of two.
Binding of biotinylated antibodies was detected with fluorochrome-conjugated streptavidin and analysed using flow cytometry.

[3] = molecular target: T3, dimeric antigen EpCAM-Fc (Sino hEpCAM_Fc #10694-H02H) (human, UniProt P16422 24-265); experiment: BLI (Octet RED96), Assay 1: bsAb on FAB2G sensors, dimeric EpCAM-Fc in solution, 1:1 fit
T3 construct: not shown: Fc part
T3 sequence (looked up): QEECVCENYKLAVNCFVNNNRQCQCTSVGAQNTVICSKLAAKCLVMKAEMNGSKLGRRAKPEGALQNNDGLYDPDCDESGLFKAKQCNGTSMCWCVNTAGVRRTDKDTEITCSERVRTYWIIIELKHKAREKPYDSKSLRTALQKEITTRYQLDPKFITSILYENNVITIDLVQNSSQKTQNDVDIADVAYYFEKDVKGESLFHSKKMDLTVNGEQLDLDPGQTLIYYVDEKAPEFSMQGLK
Method: (§1) Kinetic measurements were performed using the Octet RED96 platform (ForteBlo).
(§2) BsAb at 1.0 or 1.5 ug/ml where coupled to anti-human Fab-CH1 2nd generation (FAB2G) biosensors (Part no #18-5125 (tray)). Antigens were serially diluted % in 1× Kinetic buffer (ForteBio) to 100 nM, 50 nM, 25 nM, 12.5 nM, 6.25 nM, 3.125 nM, 1.56 nM or 0 nM. The association was followed for 300 seconds and the dissociation in 1× Kinetic buffer for 300 seconds. Sensor tips were regenerated using 10 mM glycine, pH 1.5. Data generated were referenced by subtracting a parallel buffer blank, the baseline was aligned with the y-axis, inter-step correlation by alignment against dissociation was performed and the data were smoothed by a Savitzky-Golay filter in the data analysis software (v.9.0.0.14). The processed data were fitted using a 1:1 Langmuir binding model with X2 as a measurement of fitting accuracy.

[4] = molecular target: T4, hEpCAM (R&D Systems #9277-EP), monomeric antigen EpCAM-his (human, UniProt P16422 24-265); experiment: BLI (Octet RED96), Assay 2: bsAb on FAB2G sensors, monomeric EpCAM-his in solution, 1:1 fit
T4 construct: Bought reagent; also called human EpCAM; not shown: His tag
T4 sequence (looked up): T3 sequence (looked up)
Method: as §1, §2

[5] = molecular target: T4, hEpCAM (R&D Systems #9277-EP), …; experiment: Mono ELISA (top frame): plate coated with 0.5 µg/mL hEpCAM, detection with HRP-labelled goat anti-human kappa light chain, luminescence
[6] = molecular target: T3, dimeric antigen EpCAM-Fc (Sino …); experiment: BLI (Octet RED96), Assay 3: hEpCAM_Fc coupled to AR2G sensors, bsAb in solution, 1:1 fit
Method: as §1
Antigen was coupled to Amine reactive Second generation sensors (Dip and Read Amine reactive Second-Generation (AR2G) Biosensors (Part no #18-5092 (tray)) at antigen concentrations of 0.4, 1.5, 0.25 or 0.5 μg/mL. BsAb (serially diluted % in 1× Kinetic buffer (ForteBio) with start concentrations of 20, 15, 10 or 25 nM) were analysed for binding to antigen-coupled sensors. The association was followed for 300 seconds and the dissociation in 1× Kinetic buffer for 300 seconds. Sensor tips were regenerated using 10 mM glycine, pH 2.2. Data generated were referenced by subtracting a parallel buffer blank, the baseline was aligned with the y-axis, inter-step correlation by alignment against dissociation was performed and the data were smoothed by a Savitzky-Golay filter in the data analysis software (v.9.0.0.14). The processed data were fitted using a 1:1 Langmuir binding model with X2 as a measurement of fitting accuracy.

T2 sequence (P25942 21-277): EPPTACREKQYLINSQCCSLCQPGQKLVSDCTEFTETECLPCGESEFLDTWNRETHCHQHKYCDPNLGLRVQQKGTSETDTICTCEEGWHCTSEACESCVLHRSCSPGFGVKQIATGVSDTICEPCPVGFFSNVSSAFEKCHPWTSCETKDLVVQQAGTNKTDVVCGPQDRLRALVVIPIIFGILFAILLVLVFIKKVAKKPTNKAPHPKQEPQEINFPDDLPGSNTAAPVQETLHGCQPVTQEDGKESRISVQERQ

B4: 1132-3188.M (bispecific antibody, V domains shown)
VH 1: EVQLLESGGGLVQPGGSLRLSCAASGFTFSSYAMSWVRQAPGKGLEWVSGIGSYGGGTYYADSVKGRFTISRDNSKNTLYLQMNSLRAEDTAVYYCARYVNFGMDYWGQGTLVTVSS
VL 1: DIQMTQSPSSLSASVGDRVTITCRASQSISSYLNWYQQKPGKAPKLLIYAASSLQSGVPSRFSGSGSGTDFTLTISSLQPEDFATYYCQQYGRNPPTFGQGTKLEIK
VH 2: EVQLVQSGPGLVQPGGSVRISCAASGYTFTNYGMNWVKQAPGKGLEWMGWINTYTGESTYADSFKGRFTFSLDTSASAAYLQINSLRAEDTAVYYCARFAIKGDYWGQGTLLTVSS
VL 2: DIQMTQSPSSLSASVGDRVTITCRSTKSLLHSNGITYLYWYQQKPGKAPKLLIYQMSNLASGVPSRFSSSGSGTDFTLTISSLQPEDFATYYCAQNLEIPRTFGQGTKVELK
notes: also called CD40-EpCAM bispecific antibody in the Morrison format; 3188 = 4D5MOCB = BM1
Kd [3]: < 0.001 nM
koff [3]: < 1e-07 s⁻¹
kon [3]: 300000 M⁻¹ s⁻¹
Kd [4]: 30 nM
koff [4]: 0.004 s⁻¹
kon [4]: 100000 M⁻¹ s⁻¹
EC50 (read off the curve) [5]: ~0.4 nM

B5: 1132-005038.M (bispecific antibody)
VH: B4 VH 1
VL: B4 VL 1
scFv: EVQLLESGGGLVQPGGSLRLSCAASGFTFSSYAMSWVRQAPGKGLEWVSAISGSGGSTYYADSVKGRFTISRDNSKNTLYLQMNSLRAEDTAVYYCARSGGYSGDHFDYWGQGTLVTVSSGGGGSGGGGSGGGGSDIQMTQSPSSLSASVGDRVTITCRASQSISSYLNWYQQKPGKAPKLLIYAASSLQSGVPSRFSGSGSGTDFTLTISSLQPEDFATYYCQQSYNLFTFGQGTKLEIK
notes: also called CD40-EpCAM bispecific antibody in the Morrison format
Kd [3]: 6 nM
koff [3]: 0.002 s⁻¹
kon [3]: 300000 M⁻¹ s⁻¹
Kd [4]: 1000 nM
koff [4]: 0.01 s⁻¹
kon [4]: 8000 M⁻¹ s⁻¹
EC50 (read off the curve) [5]: ~1 nM

The next lines start with the values.

binding result [1]: no binding (tested: about 300 nM)
binding result [2]: binds
B1: 1132.m2 (antibody, V domains shown)
VH: B4 VH 1
VL: B4 VL 1
notes: Full chains are not tied to this name; also called LALA-mutated agonistic monoclonal CD40 antibody

Kd [3]: 4 nM
koff [3]: 0.001 s⁻¹
kon [3]: 300000 M⁻¹ s⁻¹
Kd [4]: 300 nM
koff [4]: 0.01 s⁻¹
kon [4]: 30000 M⁻¹ s⁻¹
EC50 (read off the curve) [5]: ~0.5 nM
B2: 1132-005025.M (bispecific antibody)
VH: B4 VH 1
VL: B4 VL 1
scFv: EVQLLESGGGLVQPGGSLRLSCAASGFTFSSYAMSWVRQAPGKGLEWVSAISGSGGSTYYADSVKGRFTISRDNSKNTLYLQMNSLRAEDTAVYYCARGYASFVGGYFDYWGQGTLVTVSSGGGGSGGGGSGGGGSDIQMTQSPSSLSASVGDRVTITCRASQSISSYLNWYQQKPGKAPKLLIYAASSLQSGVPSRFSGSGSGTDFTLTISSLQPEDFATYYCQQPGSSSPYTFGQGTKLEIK
notes: as for B5

Kd [3]: 0.5 nM
koff [3]: 8e-05 s⁻¹
kon [3]: 200000 M⁻¹ s⁻¹
Kd [6]: 10 nM
koff [6]: 0.002 s⁻¹
kon [6]: 200000 M⁻¹ s⁻¹
Kd [4]: 500 nM
koff [4]: 0.01 s⁻¹
kon [4]: 20000 M⁻¹ s⁻¹
B3: 1132-3174.M (bispecific antibody, V domains shown)
VH 1: B4 VH 1
VL 1: B4 VL 1
VH 2: EVQLLEQSGAELVRPGTSVKISCKASGYAFTNYWLGWVKQRPGHGLEWIGDIFPGSGNIHYNEKFKGKATLTADKSSSTAYMQLSSLTFEDSAVYFCARLRNWDEPMDYWGQGTTVTVSS
VL 2: ELVMTQSPSSLTVTAGEKVTMSCKSSQSLLNSGNQKNYLTWYQQKPGQPPKLLIYWASTRESGVPDRFTGSGSGTDFTLTISSVQAEDLAVYYCQNDYSYPLTFGAGTKLEIK
notes: as for B5
